The source of these data is patent US20220073599A1.

For one test, the target named is human VEGFA-165 (human) (UniProt P15692). As to the kind of experiment: KinExA, VEGFA-165; set-up for VEGFA-165 not described. (In general: Kinetic exclusion samples the free partner from a solution-phase mixture.)
The target of test [1] is human VEGFA-121-His (human) (UniProt P15692). The experiment in a line: KinExA equilibrium titration in solution, VEGFA-121.

pKd: −log10 of the molar value.

Aflibercept-analogue (Fc fusion), sequence (chain): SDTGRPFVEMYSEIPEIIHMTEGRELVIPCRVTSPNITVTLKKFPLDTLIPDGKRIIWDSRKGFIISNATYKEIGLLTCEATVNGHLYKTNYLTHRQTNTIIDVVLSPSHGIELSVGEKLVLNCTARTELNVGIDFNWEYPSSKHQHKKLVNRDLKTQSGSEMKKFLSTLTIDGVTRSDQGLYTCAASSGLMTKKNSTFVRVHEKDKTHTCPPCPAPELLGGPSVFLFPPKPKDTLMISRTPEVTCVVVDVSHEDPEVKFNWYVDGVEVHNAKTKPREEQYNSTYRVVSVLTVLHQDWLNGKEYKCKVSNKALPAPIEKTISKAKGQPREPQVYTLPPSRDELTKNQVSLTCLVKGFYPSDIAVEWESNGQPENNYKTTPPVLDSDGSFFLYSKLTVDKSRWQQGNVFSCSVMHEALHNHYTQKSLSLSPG
human VEGFA-121-His (human), sequence (P15692 other isoform, or with tags, fused parts or gaps): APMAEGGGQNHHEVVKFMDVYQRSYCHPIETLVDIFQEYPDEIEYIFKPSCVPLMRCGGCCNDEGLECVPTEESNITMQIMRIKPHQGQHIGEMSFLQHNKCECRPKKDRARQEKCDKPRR
human VEGFA-165 (human), sequence (P15692 other isoform, or with tags, fused parts or gaps limits assumed): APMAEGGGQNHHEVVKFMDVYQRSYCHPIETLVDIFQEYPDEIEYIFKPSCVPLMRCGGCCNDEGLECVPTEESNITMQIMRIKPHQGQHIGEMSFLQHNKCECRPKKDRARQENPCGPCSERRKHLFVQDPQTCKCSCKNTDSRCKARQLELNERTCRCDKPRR

Aflibercept-analogue (Fc fusion): the pKd (commonly the negative decadic logarithm of the Kd, by convention in mol/L) with human VEGFA-165 (human) was 13.00; in test [1], 12.70.
